In article doi:10.1101/2024.11.01.621505:

Target: CCR9 ΔCT (human) (UniProt P51686)
Chain of UniProt P51686 (P51686 1-334, stated change not applied): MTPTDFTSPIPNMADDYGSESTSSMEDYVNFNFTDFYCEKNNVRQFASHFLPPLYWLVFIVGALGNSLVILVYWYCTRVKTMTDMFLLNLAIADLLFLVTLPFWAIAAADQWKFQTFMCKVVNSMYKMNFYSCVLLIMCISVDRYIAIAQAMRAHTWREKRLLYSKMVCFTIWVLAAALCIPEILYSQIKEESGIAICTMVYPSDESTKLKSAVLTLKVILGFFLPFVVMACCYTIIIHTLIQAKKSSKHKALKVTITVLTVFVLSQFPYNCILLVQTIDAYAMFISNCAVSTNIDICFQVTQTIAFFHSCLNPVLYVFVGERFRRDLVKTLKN

**Q.** Which Gi activation: area over the G⍺i-Gβγ dissociation curve (AOC), against CCR9 WT does the source give for “G⍺i-Nluc (from UniProt P63096 1-354) (natural protein)” here?
**A.** Its Gi activation: area over the G⍺i-Gβγ dissociation curve (AOC), against CCR9 WT is 6 fold.
